Results as given in patent US20140087995A1 (published 2014).
Numbered stars: 1 amine (or outer) side, 2 acyl side, 3 side chain; on linkers, the order of the positions; unused ones are H or OH. Bridge positions count the residues as written; N and C are the ends. * marks the point of attachment. C20 diacid = O=C(O)CCCCCCCCCCCCCCCCCCC(=O)*; γGlu = O=C(O)[C@H](CCC(=O)[*:2])N[*:1]

T1: human calcitonin receptor (human, UniProt P30988 25-474)
T1 sequence (looked up): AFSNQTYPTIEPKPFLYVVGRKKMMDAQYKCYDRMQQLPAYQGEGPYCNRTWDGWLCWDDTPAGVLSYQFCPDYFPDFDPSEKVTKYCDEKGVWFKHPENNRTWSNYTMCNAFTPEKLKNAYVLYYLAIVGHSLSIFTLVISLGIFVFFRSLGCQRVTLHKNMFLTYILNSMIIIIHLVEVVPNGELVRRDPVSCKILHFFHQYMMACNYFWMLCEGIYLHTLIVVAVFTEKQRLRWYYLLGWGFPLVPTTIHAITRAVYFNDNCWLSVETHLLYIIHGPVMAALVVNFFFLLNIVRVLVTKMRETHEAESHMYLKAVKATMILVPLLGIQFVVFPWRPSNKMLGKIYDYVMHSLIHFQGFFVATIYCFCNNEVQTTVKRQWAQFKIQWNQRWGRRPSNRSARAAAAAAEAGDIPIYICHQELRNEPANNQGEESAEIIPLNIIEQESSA

B1: N^α1-[(4S)-4-carboxy-4-(19-carboxynonadecanoylamino)butanoyl]-[Arg17,Pro21,Pro27,Pro31,Glu35]-h-amylin (peptide)
peptide: {C20 diacid-γGlu}-KCNTATCATQRLANFLRHSSPNFGAIPSSTPVGSETY-NH2
modifications: disulfide 2-7
SMILES: CC[C@H](C)[C@H](NC(=O)[C@H](C)NC(=O)CNC(=O)[C@H](Cc1ccccc1)NC(=O)[C@H](CC(N)=O)NC(=O)[C@@H]1CCCN1C(=O)[C@H](CO)NC(=O)[C@H](CO)NC(=O)[C@H](Cc1c[nH]cn1)NC(=O)[C@H](CCCNC(=N)N)NC(=O)[C@H](CC(C)C)NC(=O)[C@H](Cc1ccccc1)NC(=O)[C@H](CC(N)=O)NC(=O)[C@H](C)NC(=O)[C@H](CC(C)C)NC(=O)[C@H](CCCNC(=N)N)NC(=O)[C@H](CCC(N)=O)NC(=O)[C@@H](NC(=O)[C@H](C)NC(=O)[C@@H]1CSSC[C@H](NC(=O)[C@H](CCCCN)NC(=O)CC[C@H](NC(=O)CCCCCCCCCCCCCCCCCCC(=O)O)C(=O)O)C(=O)N[C@@H](CC(N)=O)C(=O)N[C@@H]([C@@H](C)O)C(=O)N[C@@H](C)C(=O)N[C@@H]([C@@H](C)O)C(=O)N1)[C@@H](C)O)C(=O)N1CCC[C@H]1C(=O)N[C@@H](CO)C(=O)N[C@@H](CO)C(=O)N[C@H](C(=O)N1CCC[C@H]1C(=O)N[C@H](C(=O)NCC(=O)N[C@@H](CO)C(=O)N[C@@H](CCC(=O)O)C(=O)N[C@H](C(=O)N[C@@H](Cc1ccc(O)cc1)C(N)=O)[C@@H](C)O)C(C)C)[C@@H](C)O
notes: h-amylin derivative; disulfide bridge and C-terminal amide as told for human amylin; also called compound 28
B2: N^α1-[(4S)-4-carboxy-4-(19-carboxynonadecanoylamino)butanoyl]-[Glu14,Arg17,Pro21,Pro27,Arg35]-h-amylin (peptide)
peptide: {C20 diacid-γGlu}-KCNTATCATQRLAEFLRHSSPNFGAIPSSTNVGSRTY-NH2
modifications: disulfide 2-7
SMILES: CC[C@H](C)[C@H](NC(=O)[C@H](C)NC(=O)CNC(=O)[C@H](Cc1ccccc1)NC(=O)[C@H](CC(N)=O)NC(=O)[C@@H]1CCCN1C(=O)[C@H](CO)NC(=O)[C@H](CO)NC(=O)[C@H](Cc1c[nH]cn1)NC(=O)[C@H](CCCNC(=N)N)NC(=O)[C@H](CC(C)C)NC(=O)[C@H](Cc1ccccc1)NC(=O)[C@H](CCC(=O)O)NC(=O)[C@H](C)NC(=O)[C@H](CC(C)C)NC(=O)[C@H](CCCNC(=N)N)NC(=O)[C@H](CCC(N)=O)NC(=O)[C@@H](NC(=O)[C@H](C)NC(=O)[C@@H]1CSSC[C@H](NC(=O)[C@H](CCCCN)NC(=O)CC[C@H](NC(=O)CCCCCCCCCCCCCCCCCCC(=O)O)C(=O)O)C(=O)N[C@@H](CC(N)=O)C(=O)N[C@@H]([C@@H](C)O)C(=O)N[C@@H](C)C(=O)N[C@@H]([C@@H](C)O)C(=O)N1)[C@@H](C)O)C(=O)N1CCC[C@H]1C(=O)N[C@@H](CO)C(=O)N[C@@H](CO)C(=O)N[C@H](C(=O)N[C@@H](CC(N)=O)C(=O)N[C@H](C(=O)NCC(=O)N[C@@H](CO)C(=O)N[C@@H](CCCNC(=N)N)C(=O)N[C@H](C(=O)N[C@@H](Cc1ccc(O)cc1)C(N)=O)[C@@H](C)O)C(C)C)[C@@H](C)O
notes: h-amylin derivative; disulfide bridge and C-terminal amide as told for human amylin; also called compound 16
B3: N^α1-[(4S)-4-carboxy-4-(19-carboxynonadecanoylamino)butanoyl]-[Arg17,Pro21,Pro27,Pro34,Glu35]-h-amylin (peptide)
peptide: {C20 diacid-γGlu}-KCNTATCATQRLANFLRHSSPNFGAIPSSTNVGPETY-NH2
modifications: disulfide 2-7
SMILES: CC[C@H](C)[C@H](NC(=O)[C@H](C)NC(=O)CNC(=O)[C@H](Cc1ccccc1)NC(=O)[C@H](CC(N)=O)NC(=O)[C@@H]1CCCN1C(=O)[C@H](CO)NC(=O)[C@H](CO)NC(=O)[C@H](Cc1c[nH]cn1)NC(=O)[C@H](CCCNC(=N)N)NC(=O)[C@H](CC(C)C)NC(=O)[C@H](Cc1ccccc1)NC(=O)[C@H](CC(N)=O)NC(=O)[C@H](C)NC(=O)[C@H](CC(C)C)NC(=O)[C@H](CCCNC(=N)N)NC(=O)[C@H](CCC(N)=O)NC(=O)[C@@H](NC(=O)[C@H](C)NC(=O)[C@@H]1CSSC[C@H](NC(=O)[C@H](CCCCN)NC(=O)CC[C@H](NC(=O)CCCCCCCCCCCCCCCCCCC(=O)O)C(=O)O)C(=O)N[C@@H](CC(N)=O)C(=O)N[C@@H]([C@@H](C)O)C(=O)N[C@@H](C)C(=O)N[C@@H]([C@@H](C)O)C(=O)N1)[C@@H](C)O)C(=O)N1CCC[C@H]1C(=O)N[C@@H](CO)C(=O)N[C@@H](CO)C(=O)N[C@H](C(=O)N[C@@H](CC(N)=O)C(=O)N[C@H](C(=O)NCC(=O)N1CCC[C@H]1C(=O)N[C@@H](CCC(=O)O)C(=O)N[C@H](C(=O)N[C@@H](Cc1ccc(O)cc1)C(N)=O)[C@@H](C)O)C(C)C)[C@@H](C)O
notes: h-amylin derivative; disulfide bridge and C-terminal amide as told for human amylin; also called compound 29
B4: N^α1-[(4S)-4-carboxy-4-(19-carboxynonadecanoylamino)butanoyl]-[Glu14,Arg17,Pro21,Pro27,Pro31]-h-amylin (peptide)
peptide: {C20 diacid-γGlu}-KCNTATCATQRLAEFLRHSSPNFGAIPSSTPVGSNTY-NH2
modifications: disulfide 2-7
SMILES: CC[C@H](C)[C@H](NC(=O)[C@H](C)NC(=O)CNC(=O)[C@H](Cc1ccccc1)NC(=O)[C@H](CC(N)=O)NC(=O)[C@@H]1CCCN1C(=O)[C@H](CO)NC(=O)[C@H](CO)NC(=O)[C@H](Cc1c[nH]cn1)NC(=O)[C@H](CCCNC(=N)N)NC(=O)[C@H](CC(C)C)NC(=O)[C@H](Cc1ccccc1)NC(=O)[C@H](CCC(=O)O)NC(=O)[C@H](C)NC(=O)[C@H](CC(C)C)NC(=O)[C@H](CCCNC(=N)N)NC(=O)[C@H](CCC(N)=O)NC(=O)[C@@H](NC(=O)[C@H](C)NC(=O)[C@@H]1CSSC[C@H](NC(=O)[C@H](CCCCN)NC(=O)CC[C@H](NC(=O)CCCCCCCCCCCCCCCCCCC(=O)O)C(=O)O)C(=O)N[C@@H](CC(N)=O)C(=O)N[C@@H]([C@@H](C)O)C(=O)N[C@@H](C)C(=O)N[C@@H]([C@@H](C)O)C(=O)N1)[C@@H](C)O)C(=O)N1CCC[C@H]1C(=O)N[C@@H](CO)C(=O)N[C@@H](CO)C(=O)N[C@H](C(=O)N1CCC[C@H]1C(=O)N[C@H](C(=O)NCC(=O)N[C@@H](CO)C(=O)N[C@@H](CC(N)=O)C(=O)N[C@H](C(=O)N[C@@H](Cc1ccc(O)cc1)C(N)=O)[C@@H](C)O)C(C)C)[C@@H](C)O
notes: h-amylin derivative; disulfide bridge and C-terminal amide as told for human amylin; also called compound 31
B5: N^α1-[(4S)-4-carboxy-4-(19-carboxynonadecanoylamino)butanoyl]-[Glu14,Arg17,Pro21,Pro27,His34]-h-amylin (peptide)
peptide: {C20 diacid-γGlu}-KCNTATCATQRLAEFLRHSSPNFGAIPSSTNVGHNTY-NH2
modifications: disulfide 2-7
SMILES: CC[C@H](C)[C@H](NC(=O)[C@H](C)NC(=O)CNC(=O)[C@H](Cc1ccccc1)NC(=O)[C@H](CC(N)=O)NC(=O)[C@@H]1CCCN1C(=O)[C@H](CO)NC(=O)[C@H](CO)NC(=O)[C@H](Cc1c[nH]cn1)NC(=O)[C@H](CCCNC(=N)N)NC(=O)[C@H](CC(C)C)NC(=O)[C@H](Cc1ccccc1)NC(=O)[C@H](CCC(=O)O)NC(=O)[C@H](C)NC(=O)[C@H](CC(C)C)NC(=O)[C@H](CCCNC(=N)N)NC(=O)[C@H](CCC(N)=O)NC(=O)[C@@H](NC(=O)[C@H](C)NC(=O)[C@@H]1CSSC[C@H](NC(=O)[C@H](CCCCN)NC(=O)CC[C@H](NC(=O)CCCCCCCCCCCCCCCCCCC(=O)O)C(=O)O)C(=O)N[C@@H](CC(N)=O)C(=O)N[C@@H]([C@@H](C)O)C(=O)N[C@@H](C)C(=O)N[C@@H]([C@@H](C)O)C(=O)N1)[C@@H](C)O)C(=O)N1CCC[C@H]1C(=O)N[C@@H](CO)C(=O)N[C@@H](CO)C(=O)N[C@H](C(=O)N[C@@H](CC(N)=O)C(=O)N[C@H](C(=O)NCC(=O)N[C@@H](Cc1c[nH]cn1)C(=O)N[C@@H](CC(N)=O)C(=O)N[C@H](C(=O)N[C@@H](Cc1ccc(O)cc1)C(N)=O)[C@@H](C)O)C(C)C)[C@@H](C)O
notes: h-amylin derivative; disulfide bridge and C-terminal amide as told for human amylin; also called compound 17

Target: T1, human calcitonin receptor
Experiment: cell-based or functional assay

hCTR funct. EC50 [nM]	Binder
2.03	B1
2.21	B2
0.857	B3
0.717	B4
2.35	B5
